Test [1] concerns the target T1, Recombinant Human DLL4 (R&D Systems Cat#1506-D4/CF) (human, UniProt Q9NR61 27-524).
T1 construct: Purchased recombinant protein; also called delta-like protein 4
Kind of test: MSD ECL multi-spot plate, antigen immobilized; Fab 1.6 nM; blank spot 565.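 Also: blank spot per well as comparator with Hit at signal to blank ratio of 4 or more.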

Test [2] concerns the target T2, rHuman IGF-1 sR (IGF-1 sR), CF (R&D Systems Cat#391-GR) (human, UniProt P08069 31-932).
T2 construct: Purchased soluble receptor; also called insulin-like growth factor-1 soluble receptor; IGF-R1
The description is as above.

Test [3] deals with T3, rHuman Erythropoietin R/Fc Chimera, CF (R&D Systems Cat#963-ER) (human, UniProt P19235 25-250).
T3 construct: Purchased Fc chimera; also called EPO R/Fc; Epo R; not shown: Fc portion of the purchased chimera
T3 sequence: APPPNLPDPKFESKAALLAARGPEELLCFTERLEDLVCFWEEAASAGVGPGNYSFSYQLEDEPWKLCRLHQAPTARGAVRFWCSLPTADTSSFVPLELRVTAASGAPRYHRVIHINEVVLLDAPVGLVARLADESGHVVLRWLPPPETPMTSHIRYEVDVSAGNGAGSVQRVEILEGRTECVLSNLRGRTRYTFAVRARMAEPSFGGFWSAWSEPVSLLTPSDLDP
The test is described as above.

For test [4], the target named is T4, rHuman Notch-1/Fc Chimera, CF (R&D Systems Cat#3647-TK) (human, UniProt P46531 19-526).
T4 construct: Purchased Fc chimera; not shown: Fc portion of the purchased chimera
Described as above.

For test [5], the target named is T5, rHuman P-Cadherin/Fc Chimera, CF (R&D Systems Cat#861-PC) (human, UniProt P22223 108-654).
T5 construct: Purchased Fc chimera; not shown: Fc portion of the purchased chimera
Described as above.

Test [6] has as its target T6, rHuman CD44/Fc Chimera, CF (R&D Systems Cat#3660-CD) (human, UniProt P16070 21-220).
T6 construct: Purchased Fc chimera; not shown: Fc portion of the purchased chimera
The description is as above.

For test [7], the target named is T7, rHuman ErbB2/Fc Chimera, CF (R&D Systems Cat#1129-ER) (human, UniProt P04626 23-652).
T7 construct: Purchased Fc chimera; also called HER2/neu; not shown: Fc portion of the purchased chimera
The test is described as above.

In test [8] the target is T8, rHuman HGF R/c-MET/Fc Chimera, CF (R&D Systems Cat#358-MT/CF) (human, UniProt P08581 25-932).
T8 construct: Purchased Fc chimera; also called HGF R/Fc; not shown: Fc portion of the purchased chimera
The test is described as above.

Test [9] concerns the target T2, rHuman IGF-1 sR (IGF-1 sR), CF (R&D …). Kind of test: MSD ECL multi-spot plate, antigen immobilized; Fab 200 nM; blank spot 529.
Test [10] has as its target T3, rHuman Erythropoietin R/Fc Chimera, CF …. The description is as above.
Test [11] addresses T4, rHuman Notch-1/Fc Chimera, CF (R&D …). The description is as above.
Test [12] concerns the target T9, rHuman Notch-1/Fc Chimera, CF (R&D Systems Cat#3647-TK) (human, UniProt P46531 19-526).
T9 construct: Bought Fc chimera; Fc part of the bought chimera not given
Kind of test: MSD ECL titration, Fab 9.3 nM, blank 287.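 Also: blank spot per well as comparator with Hit at signal to blank ratio of 4 or more.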

Test [13] concerns the target T10, rHuman HGF R/c-MET/Fc Chimera, CF (R&D Systems Cat#358-MT/CF) (human, UniProt P08581 25-932).
T10 construct: Bought Fc chimera; also called HGF R/Fc; Fc part of the bought chimera not given
The experiment in a line: MSD ECL titration, Fab 9.3 nM, blank 287.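 Also: blank spot per well as comparator with Hit at signal to blank ratio of 4 or more.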

Test [14] concerns the target T11, rHuman EGF R/Fc Chimera, CF (R&D Systems Cat#344-ER) (human, UniProt P00533 25-645).
T11 construct: Bought Fc chimera; Fc part of the bought chimera not given
Kind of test: MSD ECL titration, Fab 9.3 nM, blank 287.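 Also: blank spot per well as comparator with Hit at signal to blank ratio of 4 or more.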

In test [15] the target is T12, rHuman CD44/Fc Chimera, CF (R&D Systems Cat#3660-CD) (human, UniProt P16070 21-220).
T12 construct: Bought Fc chimera; Fc part of the bought chimera not given
Kind of test: MSD ECL titration, Fab 9.3 nM, blank 287.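 Also: blank spot per well as comparator with Hit at signal to blank ratio of 4 or more.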

In test [16] the target is T13, rHuman IGF-1 sR (insulin-like growth factor-1 soluble receptor), CF (R&D Systems Cat#391-GR) (human, UniProt P08069 31-932).
T13 construct: Bought soluble receptor; also called IGF-R1
The experiment in a line: MSD ECL titration, Fab 9.3 nM, blank 287.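 Also: blank spot per well as comparator with Hit at signal to blank ratio of 4 or more.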

In test [17] the target is T14, rHuman ErbB2/Fc Chimera, CF (R&D Systems Cat#1129-ER) (human, UniProt P04626 23-652).
T14 construct: Bought Fc chimera; also called HER2/neu; Fc part of the bought chimera not given
The experiment in a line: MSD ECL titration, Fab 9.3 nM, blank 287.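 Also: blank spot per well as comparator with Hit at signal to blank ratio of 4 or more.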

For test [18], the target named is T15, rHuman P-Cadherin/Fc Chimera, CF (R&D Systems Cat#861-PC) (human, UniProt P22223 108-654).
T15 construct: Bought Fc chimera; Fc part of the bought chimera not given
Kind of test: MSD ECL titration, Fab 9.3 nM, blank 287.

The target in test [19] is T16, rHuman Erythropoietin R/Fc Chimera, CF (R&D Systems Cat#963-ER) (human, UniProt P19235 25-250).
T16 construct: Bought Fc chimera; also called EPO R/Fc; EPOR; Fc part of the bought chimera not given
T16 sequence: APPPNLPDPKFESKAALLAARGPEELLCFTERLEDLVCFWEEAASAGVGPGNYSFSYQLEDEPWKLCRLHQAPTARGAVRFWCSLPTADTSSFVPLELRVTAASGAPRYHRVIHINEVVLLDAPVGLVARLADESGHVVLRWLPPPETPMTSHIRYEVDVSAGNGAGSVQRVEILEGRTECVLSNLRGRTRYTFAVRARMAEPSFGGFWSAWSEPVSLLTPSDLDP
The experiment in a line: MSD ECL titration, Fab 9.3 nM, blank 287.

For test [20], the target named is T17, Recombinant Human DLL4 (R&D Systems Cat#1506-D4/CF) (human, UniProt Q9NR61 27-524).
T17 construct: Bought recombinant protein; also called rHuman DLL4; delta-like protein 4
The experiment in a line: MSD ECL titration, Fab 9.3 nM, blank 287.

B1: Fab VH5-51_IGHD5-18*01>3_IGHJ4*01_G100K & V3-4_IGLJ1*01 (Fab, V domains shown)
VH: EVQLVQSGAEVKKPGESLKISCKGSGYSFTSYWIGWVRQMPGKGLEWMGIIYPGDSDTRYSPSFQGQVTISADKSISTAYLQWSSLKASDTAMYYCARRKYSYGYDYFDYWGQGTLVTVSS
VL: QTVVTQEPSFSVSPGGTVTLTCGLSSGSVSTSYYPSWYQQTPGQAPRTLIYSTNTRSSGVPDRFSGSILGNKAALTITGAQADDESDYYCVLYMGSGISYVFGTGTKVTVL
notes: It was expressed as a Fab: CH1 with tags from Plasmid A and lambda CL from Plasmid E; also called Fab No. 22
On to B1, for which the ECL signal in test [1] turned out to be 2420 ECL signal; in test [2], 1440 ECL signal; in test [3] it was 899 ECL signal; in test [4], 816 ECL signal; in [5] it was 811 ECL signal; in test [6] it was 938 ECL signal. Also, the figures for the ECL signal in test [7] and in test [8] were 1320 ECL signal and 1440 ECL signal, respectively.

B2: Fab VH5-51_IGHD5-18*01>3_IGHJ4*01_G100R & V3-4_IGLJ1*01 (Fab, V domains shown)
VH: EVQLVQSGAEVKKPGESLKISCKGSGYSFTSYWIGWVRQMPGKGLEWMGIIYPGDSDTRYSPSFQGQVTISADKSISTAYLQWSSLKASDTAMYYCARRRYSYGYDYFDYWGQGTLVTVSS
VL: QTVVTQEPSFSVSPGGTVTLTCGLSSGSVSTSYYPSWYQQTPGQAPRTLIYSTNTRSSGVPDRFSGSILGNKAALTITGAQADDESDYYCVLYMGSGISYVFGTGTKVTVL
notes: It was expressed as a Fab: CH1 with tags from Plasmid A and lambda CL from Plasmid E; also called Fab No. 23
Take B2: the ECL signal in test [9] came out at 1110 ECL signal; in test [10] it was 1180 ECL signal; in test [11] it was 1330 ECL signal.

B3: Fab VH1-46_IGHD6-6*01_IGHJ1*01 & L6_IGKJ1*01 (Fab, V domains shown)
VH: QVQLVQSGAEVKKPGASVKVSCKASGYTFTSYYMHWVRQAPGQGLEWMGIINPSGGSTSYAQKFQGRVTMTRDTSTSTVYMELSSLRSEDTAVYYCAREEYSSSSAEYFQHWGQGTLVTVSS
VL: not shown
notes: Expressed in E. coli as Fab: heavy chain with CH1 plus Flag and His tags from Plasmid A, kappa light chain constant region from Plasmid C; also called Fab No. 1
As to B3, the ECL signal in test [12] was 492; in [13] it was 324; in [14], 424; in [15], 396; in test [16] it was 315; in test [17], 354. Moreover, the ECL signal in [18] was determined as 452; in test [19], 306; in test [20], 13200.
